Source: patent US12522635B2, “Amyloid peptide variants” (Loyola Marymount University, priority 2019, dated 2026)
Where a SMILES comes first, the peptide text is derived from it. Bridges are numbered along the chain shown (N, C = ends). Where no end group is shown, it is not given here.

Experiments:
[1] = biological target: T1, human IAPP (hIAPP) (Homo sapiens, UniProt P10997); assay: Thioflavin T binding assay of hIAPP aggregation when mixed with IAPP peptides; assay type: biochemical; settings: for inhibition of hIAPP aggregation, thioflavin T binding: hIAPP mixed with peptide, incubated at 37° C. with shaking; for inhibition of hIAPP aggregation (summary statement): peptide mixed with hIAPP, no single assay (thioflavin T and AFM)
T1 construct: This 37 amino acid polypeptide is co-secreted from pancreatic β-islet cells with insulin
T1 sequence (P10997 34-70 limits assumed): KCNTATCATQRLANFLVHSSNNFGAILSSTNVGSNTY
Source text: Any of a number of assays known to the art can be used to evaluate the ability of IAPP peptides to inhibit hIAPP aggregation and/or protect cells from hIAPP toxicity. Thioflavin T (ThT) binding is one such technique for identifying amyloid formation in real time. Human IAPP is known to bind thioflavin T during aggregation and amyloid formation, and upon binding to amyloid fibrils ThT will give a strong fluorescence signal at approximately 482 nm when excited at 450 nm. ThT fluorescence correlates linearly with amyloid concentration in a sample and therefore can be used to determine the amount of aggregation in a sample. This technique can therefore be used for identifying substances with amyloid-inhibiting potential when such substances are mixed with human IAPP under conditions known to result in the formation of aggregates by hIAPP. Determining the extent of aggregation can also be determined using other techniques, such as Atomic Force Microscopy (AFM), which can provide information about particle dimensions, shape, and substructure with nanometer resolution. In the foregoing assays and others that can be used by one of skill in the art, significant inhibition can be determined using a t-test by measuring the difference between hIAPP and hIAPP combined with an IAPP peptide.
To identify IAPP peptides having inhibitory potential against hIAPP aggregation, the peptides shown in FIG. 1 from a number of species (cow, degu, guinea pig, horse, pig, rat, and sheep[…]) were mixed with hIAPP at a 2:1 molar ratio of animal peptide to hIAPP and incubated under conditions known to promote hIAPP aggregation and fibril formation. IAPP alone, or hIAPP mixed with an animal IAPP, was pipetted into a glass tube and the HFIP was removed under speed-vacuum. The resulting peptide sample was dissolved in 20 mM Tris buffer pH 7.4.
37 μM human IAPP was mixed with 75 μM of each indicated animal IAPP. Aggregation was initiated by incubating samples at 37° C. with shaking at 200 rpm for 40 minutes. At indicated time points, a 17 μL aliquot of each sample was mixed with 663 μL of 50.0 μM thioflavin T in 20 mM Tris buffer (pH 7.4). Thioflavin T fluorescence emission was then recorded at 488 nm using a Hitachi F-7000 fluorescence spectrophotometer.
After 40 minutes, these samples were monitored for their ability to bind thioflavin T (see FIG. 2) and their ability to form fibrils as identified with atomic force microscopy.
Human IAPP (37 μM) was mixed with each of the indicated Weddell seal variants (at 75 μM) and incubated for 30 minutes at 37° C. with shaking at 200 rpm. The Weddell seal IAPP peptides were likewise subjected to atomic force microscopy as described in Example 2.
Human IAPP was mixed with each of the indicated raccoon variants and incubated at 37° C. with shaking.
Human IAPP was mixed with each of the indicated chicken variants and incubated at 37° C. with shaking. […] However, it was able to protect cells in MTT assays, so it is believed to inhibit formation of toxic oligomers while having a lesser effect on inhibiting the formation of fibers (which are less toxic and less able to bind ThT).
Human IAPP was mixed with each of the indicated chicken variants and incubated at 37° C. with shaking.

[2] = biological target: T1, human IAPP (hIAPP); assay: Atomic force microscopy (AFM) of hIAPP fibril formation when mixed with IAPP peptides; assay type: biochemical; settings: 37 μM hIAPP and 75 μM peptide, 37° C. with shaking for 40 minutes
Experimental: Samples labeled with hIAPP contained 40 μM hIAPP. The sample with pramlintide and hIAPP contained a 2:1 molar mixture (80 μM Pramlintide mixed with 40 μM hIAPP). The samples with raccoon IAPP and Pramlintide alone contained 40 μM of the indicated peptides. Each sample was incubated for 40 minutes at 37° C. with shaking; conditions known to promote hIAPP amyloid formation. All scans show raw data with no flattening and are […].
Each sample contained 37 μM hIAPP and 75 μM of the indicated peptide. Samples were incubated at 37° C. with shaking for 40 minutes. All scans show raw data with no flattening and are […].
Each sample contained 37 μM hIAPP mixed with 37 μM of the indicated peptide. Samples were incubated at 37° C. with shaking for 30 minutes before depositing each sample onto freshly cleaved mica.
Samples of hIAPP with or without animal IAPP were prepared as described in Example 1 and were then incubated with shaking at 37° C. for 40 minutes. After this incubation, 17 μL of each sample was deposited onto freshly cleaved mica. Samples were incubated for 5 minutes at room temperature before washing with 200 μL sterile water. After drying, the samples were scanned using an MFP-3D atomic force microscope (Asylum Research) set on A/C mode and a 240 m silicon cantilever (Olympus).
Many of the animal IAPP variants are known to likewise form fibrils and yield amyloid-plaques when scanned via AFM. […] This is in spite of the fact that all of these IAPP peptides (except polar bear IAPP) are known to aggregate and form fibrils themselves under these or similar conditions

[3] = test system: RIN-m cells; assay: MTT viability assay, peptide alone or mixed with hIAPP; assay type: cell-based; settings: for rescue / protection of cells from hIAPP toxicity (words): hIAPP mixed with peptide 1:1, MTT assay
Source text: Cytoprotection can likewise be measured by a number of assays known to the art. One such assay is the MTT assay, which is a colorimetric assay for assessing cell metabolic activity. NAD(P)H-dependent cellular oxidoreductase enzymes in the cytosolic compartment of a cell reduces the tetrazolium dye MTT 3-(4,5-dimethylthiazol-2-yl)-2,5-diphenyltetrazolium bromide to an insoluble form, formazan, which has a purple color. The reduction of MTT (and other tetrazolium dyes) depends on the cellular metabolic activity, so a loss of color in the course of performing an MTT assay indicates low metabolic activity, and is thus an indicator of cell damage and death.
To test cell viability, a MTT colorimetric assay measuring the conversion of yellow tetrazolium salt into purple formazan crystal catalyzed by a mitochondrial reductase was used. Cell viability studies were performed using RIN-m cells (ATCC, CRL-2057). An equal number of RIN-m cells were plated in triplicate and incubated overnight in 96-well plates. The next day, fresh RPMI-1640 with phenol red supplemented with 10% FBS was added to cells. Hexafluoroisopropanol (HFIP) was removed from each individual human and animal IAPP using a centrivap concentrator (LabOnco). All IAPP peptide samples were re-suspended in RPMI-1640 with 10% FBS. To ensure even re-suspension, each resulting IAPP-containing vial was scraped with a pipette tip six times and vortexed (Vortex Genie Mixer) for 15 seconds. The whole process, from drying each IAPP peptide to adding each IAPP peptide to the cells was uniform to ensure that each sample was incubated for an equal amount of time with each IAPP peptide. IAPP peptides were added to cells and incubated for 46 hours at 37° C. Post-incubation, the media in each well was replaced by fresh DMEM/F-12 without phenol red. MTT (3-(4,5-dimethyl-2-thiazolyl)-2,5-diphenyl-tetrazolium bromide) was added into each well and incubated at 37° C. for 2 hours. Formazan crystals, formed on the bottom of the wells, were re-suspended in solubilization buffer (20% SDS and 50% dimethylformamide). The absorbance in each well was taken at 570 nm using a Multiskan FC Microplate Photometer (Thermos Fisher Scientific). Media were obtained from ATCC. All incubations took place in a water jacketed incubator in 5% carbon dioxide at 37° C. (Shell Lab).
The MTT viability assay was used to measure cell viability of RIN-m cells upon addition of hIAPP alone, the addition of each animal IAPP peptide alone, and hIAPP mixed with each animal IAPP peptide (results shown in FIG. 5). RIN-m cells alone were used as a control and set to 100% cell viability. […] Addition of raccoon IAPP to hIAPP increased the cell viability from 55% to an average of 72% (p=0.005705). Addition of chicken IAPP variant to hIAPP increased cell viability to an average of 76% (p=0.013556).

Compound | inhibition of hIAPP aggregation, thioflavin T binding [1] | inhibition of hIAPP fibril formation, AFM [2] | rescue / protection of cells from hIAPP toxicity (words) [3] | inhibition of hIAPP aggregation (summary statement) [1] | toxicity of peptide to cells ([3]; peptide alone, MTT assay, pancreatic (RIN-m) cells)
KCNTATCATQRLANFLVRSSNNLGAILSSTNVGSNTY (Leptonychotes weddellii mutation) [WS_RL] | inhibited hIAPP aggregation | strong inhibitors of hIAPP fiber formation | rescued cells from hIAPP toxicity | – | –
CC[C@H](C)[C@H](NC(=O)[C@H](C)NC(=O)CNC(=O)[C@H](CC(C)C)NC(=O)[C@H](CC(N)=O)NC(=O)[C@H](CC(N)=O)NC(=O)[C@H](CO)NC(=O)[C@H](CO)NC(=O)[C@H](CCCNC(=N)N)NC(=O)[C@@H](NC(=O)[C@H](CC(C)C)NC(=O)[C@H](Cc1ccccc1)NC(=O)[C@H](CC(N)=O)NC(=O)[C@H](C)NC(=O)[C@H](CC(C)C)NC(=O)[C@H](CCCNC(=N)N)NC(=O)[C@H](CCC(N)=O)NC(=O)[C@@H](NC(=O)[C@H](C)NC(=O)[C@@H]1CSSC[C@H](NC(=O)[C@@H](N)CCCCN)C(=O)N[C@@H](CC(N)=O)C(=O)N[C@@H]([C@@H](C)O)C(=O)N[C@@H](C)C(=O)N[C@@H]([C@@H](C)O)C(=O)N1)[C@@H](C)O)[C@@H](C)CC)C(=O)N[C@@H](CC(C)C)C(=O)N[C@@H](CO)C(=O)N1CCC[C@H]1C(=O)N[C@H](C(=O)N[C@@H](CC(N)=O)C(=O)N[C@H](C(=O)NCC(=O)N[C@@H](CO)C(=O)N[C@@H](CC(N)=O)C(=O)N[C@H](C(=O)N[C@@H](Cc1ccc(O)cc1)C(N)=O)[C@@H](C)O)C(C)C)[C@@H](C)O [cat IAPP] (H-KCNTATCATQRLANFLIRSSNNLGAILSPTNVGSNTY-NH2; disulfide 2-7 (inferred); N-terminus and C-terminus assumed) | – | significant ability to prevent fiber formation | – | able to inhibit such aggregation | –
KCNTATCVTQRLADFLVRSSSNIGAIYSP (Gallus gallus truncation) [C1-29] | inhibited hIAPP aggregation | amyloid fibers were formed and did | rescued cells from hIAPP-induced cytotoxicity | – | –
KCNTATCVTQRLADFLVRSSSNIGAIY (Gallus gallus truncation) [C1-27] | inhibited hIAPP aggregation | did | rescued cells from hIAPP-induced cytotoxicity | – | –
KCNTATCVTQRLANFLLRSSNNLGAILSP (Procyon lotor truncation) [R1-29] | inhibited hIAPP aggregation | did | rescued cells from hIAPP-induced cytotoxicity | – | –
KCNTATCATQRLANFLVHSSNNLGAILSPTNVGSNTY (KTATCATQRLANFLVHSSNNLGAILSPTNVGSNTY; Leptonychotes weddellii mutation) [WS_LP] | inhibited hIAPP aggregation | strong inhibitors of hIAPP fiber formation | – | – | toxic to cells, with and without addition of hIAPP
KCNTATCATQRLANFLVRTSNNLGAILSPTNVGSNTY (ends and bridges not checked; cysteine pairing not given here) [dog IAPP] | – | significant ability to prevent fiber formation | – | able to inhibit such aggregation | –
cow IAPP: naturally occurring IAPP peptide of cow origin (FIG. 1) (CGTATCETQRLANFLAPSSNKLGAIFSPTKMGSNTY; ends and bridges not checked; cysteine pairing not given here) | – | either had no effect on hIAPP fibril formation or appeared to promote fibrils with hIAPP | – | failed to inhibit the aggregation of human IAPP | –
degu IAPP: naturally occurring IAPP peptide of degu origin (FIG. 1) (KCNTATCATQRLTNFLVRSSHNLGAALPPTKVGSNTY; ends and bridges not checked; cysteine pairing not given here; UniProt P22889 37-73, looked up) | – | either had no effect on hIAPP fibril formation or appeared to promote fibrils with hIAPP | – | failed to inhibit the aggregation of human IAPP | –
guinea pig IAPP: naturally occurring IAPP peptide of guinea pig origin (FIG. 1) (KCNTATCATQRLTNFLVRSSHNLGAALLPTDVGSNTY; ends and bridges not checked; cysteine pairing not given here; UniProt P12966 37-73, looked up) | – | either had no effect on hIAPP fibril formation or appeared to promote fibrils with hIAPP | – | failed to inhibit the aggregation of human IAPP | –
